Experimental data from the domain aggregation screens of Martell et al. (2025).

Assay: soluble fraction after stress (log2 fold change); higher = more stays soluble; pooled small domains, quantitative proteomics
Details: stress: 50 degC
Method in brief: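 The stress applied to every library was 50°C. These custom libraries of small protein domains were pooled and measured at high throughput with quantitative proteomics as the read-out. Aggregation propensity is expressed as the base-two logarithm of the fold change in how much of each protein remains soluble. The higher the value, the more of that protein stays in solution.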

Row | Sequence | soluble fraction (log2)
1 | HMRYPLPYAFARSQQLLLEETDDGRYTLWMSSHPARSAVGEVSRKYGVQTFEVLADGPLAQRISAAYAQ | -1.37
2 | HMRYTAAEMAKKLDISRSYLYYLKEAGVVEIEKNENGKPIWTESVYNQLFEYIKKNHRTEEADNTQ | -0.578
3 | HMSAAIGEAVIATDEINVRSGPGLSHEIVSVVSRNESYPILEERGDWVQIQLNGGQKGWVVSWLIKKKS | 0.169
4 | HMSAAMTESVLDGIPGLGATRKAALLAHFGSVRKLRAATSEQVREVPGIGPRLAETILATLHEP | -0.181
5 | HMSAATGIINTDNVNIRSGPATTYDAVGRLNQGSSVEILSSRNDWYQIQANSLKGWVRNDLLNVQK | 0.0404
6 | HMSADDLVSRTQAIVAELKDLEGPLLPILHSVQEAFGHVPDEVKPVIAEALNLSRAEVHGVVSFYHDFRAH | -0.112
7 | HMSADIGAEKAKTIALNHAGVSASNAVFLHAKLDYDDGRRTYEVEFYSGSKEYDYEIDAATGEILSYDFD | -0.777
8 | HMSAEAYLSFVKKENLRAAVVNYENNKEWLKDVPHERLLDLAVFAKVDMGEPGMSMKFNNWLLSR | -0.78
9 | HMSAEKDGEWLTLTEAAKHLQVSPHVIRRLIQTGALPAEQVMRGAPHQIRAADLDTDRVKTMIAR | 0.193
10 | HMSAEKPVKSELFYKSMLNSFEQAVRFMIANGILEDFKSRIVAINNETNHQNWFNKQEFNAIIERF | -0.449
11 | HMSAERFDFRIGPELAGKRFDQALAEALPQFSRSRLSTWIKDGRATLNGATMRPKDSVHAGDTVVVNAE | 0.126
12 | HMSAEVEVPDVVGRQVALAVQLIETKKLRVNVAETYDAKVPPGQVISQSPEAGMKVKEERVITIYVSR | -0.167
13 | HMSAGISVADVTNRTYDEGYNTLTAQHLLVNKVYEANETIPLDTIIRTDPVAGTKVPDNTSITVYVSSGK | 0.000832
14 | HMSAGPQGRTPREDELTVGTKVYVSRVGASGVVSSDVSRGKVVVQVGALRLTAAVSELLLLDG | 0.151
15 | HMSAGYTYQNYQQDLKSGNVQNIHIYLSEEMYSGNVKVIYKNNKSVTFTVTDVTIAEAEARQVGISPIIYE | -0.1
16 | HMSAHDLQVVLRWIGTDEPMTDQRYRITTEDGRTFEGRTDDAGLTERVASTIPFGRYSIEALD | -0.441
17 | HMSAIEIDAEKILNYLTDRGGKMPYGDTTAPEVIKDKFNISKAAFKRALGFLLRSNKIEQIDGWTYI | -0.317
18 | HMSAIKSVTTQLDNTKLRTGPDVSYQYTQSYPANTKLTYINKSGTWYQVKDADGNTGYVASWVVTPSE | 0.236
19 | HMSALIGAHTLERIDSRDFEGVVMAWLPKRDGYDSLYKIYHIEDGDFEELDDREVQAAISLFIEGT | -0.431
20 | HMSAPAMTLDSIRSLLNDRDPWVVTQTVEWLVGLGPQVKTILETLTLESSDAARQAQNALDRINVRNYP | -0.155
21 | HMSAPNPGQMHSWTDTQGRTLQATFIKADATTVTLNWNGRIVPIPLANLNAASQKLARELASAS | 0.181
22 | HMSAPRRGETTAASLNLRAGPATDADILAQLPERTPLRVLQEDGEWLRVETHGNEGFVHRQFVAIPGDEP | 0.218
23 | HMSARRHAVKHLDANQLQTRVARMLSEFGLTAKVSKDPNSNALIIDGAPEAQRIAAQLITTIDKE | 0.091
24 | HMSASSDATRQRVLRAAEQLFGAKGVENVSLREMTTLAGVNLAAVNYHFGSKDALAEAVFEALSER | 0.41
25 | HMSASSEALKTAVRKVLLNNRMTQDRMARDAGLSGSALSQWLHGKYQGDVPALEGRLAAWLADTQAS | 0.0546
26 | HMSASSTAPGSVTLRGAILTAWTAAGGERSKMGLPVGYEVRQADGTVTQTFEKGRISVSPTGTATI | 0.0647
27 | HMSAVNLNDDEKAVYKSIKSGIRSLDELSLRTGMKIYELMAITVSLEMKGLVTKSPDGTLDAT | 0.147
28 | HMSDAKKRAFSKDEILYSLKNRPFTSFDIESLFDDESKKTFIGLLDKGEISEKKVAGTIFYYLR | -0.0659

Row | Sequence | soluble fraction (log2)
29 | HMSDEEAISKLPGVGPAILEKLKEAGYNDIMTIAVDSPKNLAELAEIGEPTAAKIIAAAKKAAD | 0.0933
30 | HMSDIDIDVENDRAALAIAGGKLNHLVGARGEVLDALQELTRLAVQTSLGERSRLMLDIDNFRSD | -0.00224
31 | HMSDIHARIAAALAALTSPEKIHDLVVDDDGKVSFTFHLTREDPATLVRDARKAVQAVDGVRDVKVNVVDP | 0.172
32 | HMSDKEDIDKYLLTYGDLLFNRTNSSEWVGKTAIYRGEVSAIYAGYLIRIRSFLDAEYLNSVMNSKYA | -0.235
33 | HMSDKTSLTDDDKALINSMLPDYDKYPSVAKLQAVEIAKSSSKMATLLMLDERYNETVSEALE | 0.0209
34 | HMSDLGEIEKIVDEVLAENITKVQEYKDGKKGLMGMFMGQIMKKSGGKADPKIANQLLTEKL | 0.114
35 | HMSDNHYLLEIFLADLKSDEKFIRELAIFQLHHHIESDKVRAELKAAAETESDPYLKGMIESLLSSTS | -0.943
36 | HMSDNYYSILGIETDATTDMIKRAYRRLSLELHPDRTKDNPILTEKYKKVNEAYGVLNDNDRKHIYDLQNI | -0.216
37 | HMSDPELAIPRVVGLSGNDAQAALVKAGFSAVTVVTVKNSEVTSEQVTHVVPAEGAKAKASTPVTVVVSSS | -0.0196
38 | HMSDRQLKRQANILYTTRKLASKVGYDGLTMRGLAEASEVSPKTLYNLFSSKDELLAAALEDLVGIV | 0.282
39 | HMSDTFTITTESGRIDKIITAHETTHTRSQVQKWLQDGLVTVNGNPVKANFKVTAGDVVTVTIPEVK | 0.104
40 | HMSDTMTVTNVKYAIYLRSTPSEASDANIIMEIPVGSKVTYLDTPNNTFYKISYGGTVGYSKQIYLTF | -0.836
41 | HMSDVLPEAILERRLVKKGNRAVPQVLIKWTKLPATSATWEDFYVLQQRFPTALAWGQAPSPGGQM | -0.221
42 | HMSDVTPDVVRALRKRLKLTQVQFGEIFGMTSKKVSAWEHGKAEPTEEQKQKIQSLLKENNEQ | -0.0029
43 | HMSEATTVNYKYAVTISDLRIRKGPGTNYGSVGYTGKGVFTIVAEKGGWGKLKSGAGWISLNSKYGHKVS | -1.45
44 | HMSEEAMVSNFRQQEILELARKDGKVTVDGLAELYDVTVQTIRRDLSDLADSGRLKRVHGGAVVPS | 0.262
45 | HMSEFGENLKKLRTARDLTQQELGAKVGLSKAVVSKYENGLGYPTFDVLIRIAAYFGVTTDYLLGV | -0.442
46 | HMSEFSDRFRLLKDESGATLKELSEQLDITVPNLSYYMKGREPSYDILIKIADYFGVTTDWLIGRTDER | -0.547
47 | HMSEILQLINKIDKKLEKGYTFANISRNHYEKIYKEEILNLYKTSKLKGEAEDSIKEVLESLLGDLRKP | 0.0222
48 | HMSEISAEAGKRIRYFRKSRSMTLEELAAVIHKSKATLSKYETGEISIDLDTLYDLAVALQVRAEQLLPAS | -2.29
49 | HMSEITMMQMEIPEGHNWENRLVKDVSMPTGSLAVMIKRHGETLIPGGDTRILAGDTIVLSVPAYESG | -0.0716
50 | HMSEIYVDDINRKILYLLSQGIKTKSLLEHIPLSMSGIEKRKKQLKMLFSVEDGKDETLLEMAKEKGF | -1.45
51 | HMSEKAQSENEDLIKILALLIHAAKIDENYSEKEKKLIISFAEMSSNKKLDREQINSLVDKAEQYEK | -0.17
52 | HMSEKLLTLNEISEKLRVSRHTVQAWVSPSSPNHRPEFSSLARHAGRKTVFLESDVDAWLAQRR | -0.839
53 | HMSEKYPPIDWNNIKTGQSVLIKDINQVVSLTKLPDSKGFAEVQMGLIKTKIKAEKLAATDKKPNK | 0.0917
54 | HMSELDSYIGARLRMRRLMLGMSQEALGEKLSLTFQQIQKYEKGTNRVSASRLYELAQVLDVPVQFFFDGA | -2.93
55 | HMSENDTILAKFASIINNKSLELVIFPDTAYLKGQVSTPEDKARAETVAQSLLGSKPLISLIEFE | -0.0145
